Source: the Human Domainome abundance scans (Beltran et al. 2025)

B1: RNA-binding E3 ubiquitin-protein ligase MEX3C, residues 325 to 391; numbered along this chain, Q5U5Q3 (parent)
chain: GQTTVQVRVPYRVVGLVVGPKGATIKRIQQQTHTYIVTPSRDKEPVFEVTGMPENVDRAREEIEMHI

Variants of: B1
Experiment: abundance fitness (aPCA) (normalised: wild type 0, dead -1); higher = more abundant; growth selection in yeast, the domain comes from the species named
Conditions: Homo sapiens

Abundance fitness of substitutions, site by site:
Q31: K 0.035 | D -0.001 | F -0.452 | W -0.966 | L -0.128 | A -0.272 | G -0.57 | T -0.261 | N -0.048 | E 0.252 | C -0.69 | V -0.109 | P -0.65 | R 0.036 | S -0.319 | I -0.18 | M 0.048
H33: A -0.182 | R -0.165 | K 0.016 | Q 0.088 | P -0.845 | F -0.438 | D 0.184 | L -0.582 | N 0.171 | G 0.081 | T -0.744 | M -0.213 | C -0.426 | E -0.267 | W -1.15 | Y -0.396
A23: G -0.443 | M -0.027 | Q 0.003 | D -0.55 | H -0.258 | N -0.568 | C -0.352 | S -0.08 | W -0.553 | L -0.293 | F -0.868 | V -0.477 | E -0.082 | I -0.332 | T -0.012 | R 0.063
I28: P -0.376 | A -0.695 | G -0.883 | F -0.467 | H -0.751 | T -0.288 | C -0.874 | W -1.2 | E -0.952 | R -0.419 | M -0.639 | Q -0.576 | V -0.496 | L -0.559
G19: Q -0.623 | W -0.848 | P -0.824 | Y -0.159 | V -0.795 | R -0.739 | T -0.822
T38: N -0.347 | Y 0.017 | W -0.384 | S -0.01 | K -0.333 | M -0.271 | H -0.587 | D -0.275 | P -0.046 | C 0.005 | A -0.015 | I -0.177 | R -0.403 | G 0.005 | V -0.174 | L -0.268 | F -0.516
T34: M -0.788 | S -0.802 | D -0.503 | Y -1.07 | Q -1.01 | K -0.34 | C -0.423 | L -0.689 | R -0.641 | N -0.791 | I -0.866 | G -0.828 | A -0.877 | F -0.969 | W -0.947 | P -0.867
K21: A -0.186 | T -0.596 | R -0.196 | E -0.099 | I -0.53 | P -0.884 | W -0.458 | S -0.233 | D -0.19 | H -0.273 | N -0.113 | C -0.247 | M -0.031 | G -0.04 | L -0.183
I36: F -0.941 | R -0.715 | M -0.885 | Q -0.801 | V -0.471 | S -0.435 | P -0.736 | E -1.04 | T -0.899 | K -0.729 | G -0.586 | A -0.555 | N -0.21 | W -0.736
Q29: R -0.549 | C -0.392 | W -0.629 | I -0.736 | K -0.81 | S -0.179 | P -0.765 | D -0.34 | V -0.746 | A 0.106 | G -0.308 | F -0.882 | E -0.241 | M 0.205 | T -0.619
V37: N -0.426 | M -0.095 | S -0.027 | Q -0.094 | A -0.23 | C -0.205 | H -0.582 | I -0.089 | P -0.724 | F -1 | W -0.811 | E -0.422 | D -0.377 | K 0.216 | L -0.315 | T 0.136 | R 0.138 | Y -0.629
G22: P -0.836 | H -0.769
